The target in assay [1] is T1, FcγRIIIa type V extracellular domain with C-terminal His tag (human, UniProt P08637 17-208).
T1 construct: extracellular domain; also called FcgRIIIa V; FcγRIIIa V
Briefly: SPR (Biacore T100), ratio of KD values. As to the method:
(§1) These antibodies were assessed for the binding activity to each FcγR according to the method described in Reference Example 2.
(§2) Analysis of interaction between objective antibody and the FcγR was carried out using Biacore T100 (GE Healthcare). HBS-EP+ (GE Healthcare) was used as the running buffer, and the measurement temperature was set to 25° C. Chips produced by immobilizing the antigen peptide by the amine coupling method to a Series S Sencor Chip CM5 (GE Healthcare), or alternatively, chips produced by allowing preliminarily biotinylated antigen peptides to interact with and immobilize onto a Series S Sensor Chip SA (certified) (GE Healthcare) were used. Antibodies of interest were captured onto an antigen peptide-immobilized chip, and allowed to interact to each FcγR diluted with running buffer. To regenerate and repeatedly use the chip, the antibodies captured on the chip were washed off by reacting 10 mM glycine-HCl, pH 1.5.
(§3) The FcγR-binding activity of each antibody was assessed primarily using as an indicator the FcγR-binding activity and dissociation constant for FcγR.
On the technique in general: SPR reads the build-up and loss of mass on a sensor chip optically.

Assay [2] has as its target T2, FcγRIIa type R extracellular domain with C-terminal His tag (human, UniProt P12318 34-217).
T2 construct: extracellular domain; also called FcgRIIa R; FcγRIIa R
T2 sequence (looked up): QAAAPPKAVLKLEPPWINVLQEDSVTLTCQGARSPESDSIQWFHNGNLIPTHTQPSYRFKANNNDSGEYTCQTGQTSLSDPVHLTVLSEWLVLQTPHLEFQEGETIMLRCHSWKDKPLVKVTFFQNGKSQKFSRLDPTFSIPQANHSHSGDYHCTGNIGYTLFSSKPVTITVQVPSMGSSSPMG
Briefly: SPR (Biacore T100), ratio of KD values. As to the method:
as §1, §2, §3

Assay [3] has as its target T3, FcγRIIb extracellular domain with C-terminal His tag (human, UniProt P31994 43-217).
T3 construct: extracellular domain; also called FcgRIIb
T3 sequence (looked up): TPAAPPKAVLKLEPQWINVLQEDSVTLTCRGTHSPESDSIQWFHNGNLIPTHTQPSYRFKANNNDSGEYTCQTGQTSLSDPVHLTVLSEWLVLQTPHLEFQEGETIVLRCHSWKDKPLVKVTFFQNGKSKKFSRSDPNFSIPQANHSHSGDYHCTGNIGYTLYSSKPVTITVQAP
Briefly: SPR (Biacore T100), ratio of KD values. How it is done:
as §1, §2, §3

The target of assay [4] is T4, FcγRIIa type H extracellular domain with C-terminal His tag (human, UniProt P12318 34-217).
T4 construct: extracellular domain; also called FcgRIIa H; FcγRIIa H
T4 sequence (looked up): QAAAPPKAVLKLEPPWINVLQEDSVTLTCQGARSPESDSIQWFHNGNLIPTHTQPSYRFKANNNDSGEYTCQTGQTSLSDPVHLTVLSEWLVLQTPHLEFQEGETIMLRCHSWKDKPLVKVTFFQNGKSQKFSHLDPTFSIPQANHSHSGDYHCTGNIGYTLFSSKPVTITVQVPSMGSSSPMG
Put plainly: SPR (Biacore T100), ratio of KD values. How it is done:
as §1, §2, §3

For assay [5], the target named is T5, FcγRIIIa type F extracellular domain with C-terminal His tag (human, UniProt P08637 17-208).
T5 construct: extracellular domain; also called FcgRIIIa F; FcγRIIIa F
Put plainly: SPR (Biacore T100), ratio of KD values. As to the method:
as §1, §2, §3

Assay [6] has as its target T6, FcγRIa extracellular domain with C-terminal His tag (human, UniProt P12314 16-292).
T6 construct: extracellular domain; also called FcgRIa; FcgRI
Put plainly: SPR (Biacore T100), ratio of KD values. As to the method: as §1, §2, §3

Assay [7] concerns the target T1, FcγRIIIa type V extracellular domain …. Briefly: SPR (Biacore T100), antibody captured on antigen-peptide chip, FcγR analyte, 1:1 Langmuir fit. How it is done:
as §1, §2, §3

Assay [8] concerns the target T2, FcγRIIa type R extracellular domain …. The description is as above. How it is done:
as §1, §2, §3

For assay [9], the target named is T3, FcγRIIb extracellular domain with …. The assay is described as above. How it is done:
as §1, §2, §3

The target of assay [10] is T4, FcγRIIa type H extracellular domain …. The description is as above. As to the method:
as §1, §2, §3

Assay [11] concerns the target T5, FcγRIIIa type F extracellular domain …. The assay is described as above. As to the method: as §1, §2, §3
Assay [12] addresses T6, FcγRIa extracellular domain with …. The description is as above. As to the method:
as §1, §2, §3

T1 sequence (P08637 17-208 F176V): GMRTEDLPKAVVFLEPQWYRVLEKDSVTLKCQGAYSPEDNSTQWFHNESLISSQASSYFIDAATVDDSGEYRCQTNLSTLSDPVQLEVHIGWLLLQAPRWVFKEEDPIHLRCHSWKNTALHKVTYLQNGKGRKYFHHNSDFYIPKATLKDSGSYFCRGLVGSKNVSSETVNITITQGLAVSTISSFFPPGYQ
T6 sequence (P12314 16-292): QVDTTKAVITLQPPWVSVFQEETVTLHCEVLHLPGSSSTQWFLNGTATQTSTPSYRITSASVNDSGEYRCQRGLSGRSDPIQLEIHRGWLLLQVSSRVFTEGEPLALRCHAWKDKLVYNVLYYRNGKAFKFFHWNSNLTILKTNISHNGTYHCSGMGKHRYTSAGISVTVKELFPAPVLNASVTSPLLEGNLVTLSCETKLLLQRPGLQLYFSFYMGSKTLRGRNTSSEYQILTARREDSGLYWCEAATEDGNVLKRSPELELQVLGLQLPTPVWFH
T5 sequence (P08637 17-208): as the sequence (P08637 17-208 F176V) above, with V160F counted along it

B1: GpH7-Kn033/GpH7-Hl033/GpL16-k0 (antibody, human IgG1, kappa)
heavy 1: not shown
heavy 2: not shown
light: DIVMTQSPLSLPVTPGEPASISCQASESLVHSNRNTYLHWYLQKPGQSPQLLIYKVSNRFSGVPDRFSGSGSGTDFTLKISRVEAEDVGVYYCSQNTHVPPTFGQGTKVEIERTVAAPSVFIFPPSDEQLKSGTASVVCLLNNFYPREAKVQWKVDNALQSGNSQESVTEQDSKDSTYSLSSTLTLSKADYEKHKVYACEVTHQGLSSPVTKSFNRGEC
notes: Anti-glypican-3 IgG1 with knobs-into-holes alone; also called Kn033/Hl033
For the molecule B1, the KD ratio in assay [1], in assay [2], in assay [3], in assay [4], in assay [5] and in assay [6] was 1 fold (KD of GpH7-Kn033/GpH7-Hl033/GpL16-k0 divided by KD of this antibody) throughout. Moreover, the Kd – broadly, a measure of binding affinity in units of concentration – in assay [7] turned out to be 220 nM; in assay [8], 740 nM; in [9] it was 3600 nM; in assay [10], 590 nM; in assay [11] it was 1600 nM; in assay [12], 0.069 nM.

B2: GpH7-Kn032/GpH7-Hl032/GpL16-k0 (antibody, human IgG1, kappa)
heavy 1: QVQLVQSGAEVKKPGASVTVSCKASGYTFTDYEMHWIRQPPGEGLEWIGAIDPKTGDTAYSESFQDRVTLTADKSTSTAYMELSSLTSEDTAVYYCTRFYSYTYWGQGTLVTVSSASTKGPSVFPLAPSSKSTSGGTAALGCLVKDYFPEPVTVSWNSGALTSGVHTFPAVLQSSGLYSLSSVVTVPSSSLGTQTYICNVNHKPSNTKVDKKVEPKSCDKTHTCPPCPAPELLGGPDVFLFPPKPKDTLMISRTPEVTCVVVDVSHEDPEVKFNWYVDGVEVHNAKTKPREEQYNSTYRVVSVLTVLHQDWLNGKEYKCKVSNKALPLPEEKTISKAKGQPREPQVCTLPPSRDELTKNQVSLWCLVKGFYPSDIAVEWESNGQPENNYKTTPPVLDSDGSFFLYSKLTVDKSRWQQGNVFSCSVMHEALHNHYTQKSLSLSP
heavy 2: QVQLVQSGAEVKKPGASVTVSCKASGYTFTDYEMHWIRQPPGEGLEWIGAIDPKTGDTAYSESFQDRVTLTADKSTSTAYMELSSLTSEDTAVYYCTRFYSYTYWGQGTLVTVSSASTKGPSVFPLAPSSKSTSGGTAALGCLVKDYFPEPVTVSWNSGALTSGVHTFPAVLQSSGLYSLSSVVTVPSSSLGTQTYICNVNHKPSNTKVDKKVEPKSCDKTHTCPPCPAPELLGGPDVFLFPPKPKDTLMISRTPEVTCVVVDVSHEDPEVKFNWYVDGVEVHNAKTKPREEQYNSTYRVVSVLTVLHQDWLNGKEYKCKVSNKALPLPEEKTISKAKGQPREPQVYTLPPSRCELTKNQVSLSCAVKGFYPSDIAVEWESNGQPENNYKTTPPVLDSDGSFFLVSKLTVDKSRWQQGNVFSCSVMHEALHNHYTQKSLSLSP
light: DIVMTQSPLSLPVTPGEPASISCQASESLVHSNRNTYLHWYLQKPGQSPQLLIYKVSNRFSGVPDRFSGSGSGTDFTLKISRVEAEDVGVYYCSQNTHVPPTFGQGTKVEIERTVAAPSVFIFPPSDEQLKSGTASVVCLLNNFYPREAKVQWKVDNALQSGNSQESVTEQDSKDSTYSLSSTLTLSKADYEKHKVYACEVTHQGLSSPVTKSFNRGEC
notes: also called Kn032/Hl032
In the case of B2, the KD ratio in assay [1] was 182 fold (KD of GpH7-Kn033/GpH7-Hl033/GpL16-k0 divided by KD of this antibody); in assay [2], 3 fold (KD of GpH7-Kn033/GpH7-Hl033/GpL16-k0 divided by KD of this antibody); in assay [3] it was 8.2 fold (KD of GpH7-Kn033/GpH7-Hl033/GpL16-k0 divided by KD of this antibody); in [4], 1.2 fold (KD of GpH7-Kn033/GpH7-Hl033/GpL16-k0 divided by KD of this antibody); in [5] it was 381 fold (KD of GpH7-Kn033/GpH7-Hl033/GpL16-k0 divided by KD of this antibody); in [6], 24 fold (KD of GpH7-Kn033/GpH7-Hl033/GpL16-k0 divided by KD of this antibody). The Kd in [7] came to 1.2 nM; in [8], 250 nM; in assay [9], 440 nM; in assay [10], 470 nM; in assay [11], 4.1 nM; in [12], 0.0028 nM.

B3: GpH7-Kn037/GpH7-Hl036/GpL16-k0 (antibody, human IgG1, kappa)
heavy 1: QVQLVQSGAEVKKPGASVTVSCKASGYTFTDYEMHWIRQPPGEGLEWIGAIDPKTGDTAYSESFQDRVTLTADKSTSTAYMELSSLTSEDTAVYYCTRFYSYTYWGQGTLVTVSSASTKGPSVFPLAPSSKSTSGGTAALGCLVKDYFPEPVTVSWNSGALTSGVHTFPAVLQSSGLYSLSSVVTVPSSSLGTQTYICNVNHKPSNTKVDKKVEPKSCDKTHTCPPCPAPELLAGPDVFLFPPKPKDTLMISRTPEVTCVVVDVSHEDPEVKFNWYVDGVEVHNAKTKPREEQYNSTYRVVSVLTVLHQDWLNGKEYKCKVSNKALPAPEEKTISKAKGQPREPQVCTLPPSRDELTKNQVSLWCLVKGFYPSDIAVEWESNGQPENNYKTTPPVLDSDGSFFLYSKLTVDKSRWQQGNVFSCSVMHEALHNHYTQKSLSLSP
heavy 2: QVQLVQSGAEVKKPGASVTVSCKASGYTFTDYEMHWIRQPPGEGLEWIGAIDPKTGDTAYSESFQDRVTLTADKSTSTAYMELSSLTSEDTAVYYCTRFYSYTYWGQGTLVTVSSASTKGPSVFPLAPSSKSTSGGTAALGCLVKDYFPEPVTVSWNSGALTSGVHTFPAVLQSSGLYSLSSVVTVPSSSLGTQTYICNVNHKPSNTKVDKKVEPKSCDKTHTCPPCPAPELLAGPDVFLFPPKPKDTLMISRTPEVTCVVVDVSHEDPEVKFNWYVDGVEVHNAKTKPREEQYNSTYRVVSVLTVLHQDWLNGKEYKCKVSNKALPAPEEKTISKAKGQPREPQVYTLPPSRCELTKNQVSLSCAVKGFYPSDIAVEWESNGQPENNYKTTPPVLDSDGSFFLVSKLTVDKSRWQQGNVFSCSVMHEALHNHYTQKSLSLSP
light: DIVMTQSPLSLPVTPGEPASISCQASESLVHSNRNTYLHWYLQKPGQSPQLLIYKVSNRFSGVPDRFSGSGSGTDFTLKISRVEAEDVGVYYCSQNTHVPPTFGQGTKVEIERTVAAPSVFIFPPSDEQLKSGTASVVCLLNNFYPREAKVQWKVDNALQSGNSQESVTEQDSKDSTYSLSSTLTLSKADYEKHKVYACEVTHQGLSSPVTKSFNRGEC
notes: also called Kn037/Hl036
B3: the KD ratio in [1] was 84 fold (KD of GpH7-Kn033/GpH7-Hl033/GpL16-k0 divided by KD of this antibody); in assay [2], 43 fold (KD of GpH7-Kn033/GpH7-Hl033/GpL16-k0 divided by KD of this antibody); in assay [3], 16 fold (KD of GpH7-Kn033/GpH7-Hl033/GpL16-k0 divided by KD of this antibody); in assay [4] it was 22 fold (KD of GpH7-Kn033/GpH7-Hl033/GpL16-k0 divided by KD of this antibody); in [5], 161 fold (KD of GpH7-Kn033/GpH7-Hl033/GpL16-k0 divided by KD of this antibody); in assay [6] it was 6 fold (KD of GpH7-Kn033/GpH7-Hl033/GpL16-k0 divided by KD of this antibody). Also, the Kd in assay [7] was 2.6 nM; in assay [8], 17 nM; in assay [9], 230 nM; in assay [10], 27 nM; in assay [11], 9.7 nM; in assay [12] it was 0.012 nM.

These data come from patent US20180155451A1 (published 2018).
